Biological target: the molecule itself
Assay: AUC

B1: Archaeoglobus fulgidus alanyl-tRNA synthetase (AlaRS), wild-type, full-length (enzyme, UniProt O28029 1-906, looked up)
chain: MTLDEEYLDITFLTENGFVRKRCPKCGKHFWTADPEREICGDPPCESYSFIGNPVFKKPFELDEMREYYLNFFERRGHGRIERYPVVARWRTDIYLTIASIADFQPFVTSGVAPPPANPLTISQPCIRLDDLDSVGRTGRHLTLFEMMAHHAFNYPGKEIYWKNETVAYCTELLNELGVKKEDIVYKEEPWAGGGNAGPCLEAIVGGLEVATLVFMNLEEHPEGDIEIKGARYRKMDNYIVDTGYGLERFVWASKGTPTVYDAIFPEVVDTIIDNSNVSFNREDERVRRIVAESSKLAGIMGELRGERLNQLRKSVADTVGVSVEELEGIVVPLEKVYSLADHTRCILFMLGDGLVPSNAGAGYLARLMIRRSLRLAEELELGLDLYDLVEMHKKILGFEFDVPLSTVQEILELEKERYRTTVSKGTRLVERLVERKKKLEKDDLIELYDSHGIPVELAVGIAAEKGAEVEMPKDIYAELAKRHSKAEKVQEKKITLQNEYPATEKLYYDDPTLLEFEAEVIGVEGDFVILNRSAFYPESGGQDNDVGYLIANGGKFEVVDVLEADGVVLHVVKGAKPEVGTKVKGVIDSDVRWRHMRHHSATHVLLYSLQKVLGNHVWQAGARKEFSKARLDVTHFRRPSEEEIKEIEMLANREILANKPIKWEWMDRIEAERKFGFRLYQGGVPPGRKIRVVQVGDDVQACGGTHCRSTGEIGMLKILKVESIQDGVIRFEFAAGEAAIEAVEEMERLLREASSILRVEPAKLPKTVERFFEEWKDQRKEIERLKSVIADLWADILMERAEEFDSMKVVAEVVDADMQALQKLAERLAEKGAVGCLMAKGEGKVFVVTFSGQKYDARELLREIGRVAKGSGGGRKDVAQGAVQQLLDREEMLDVIFRFLSEHEG
With B1 the “stoichiometry N” value was 2.

From paper PMC4323281 (Nature, 2014)
